Experimental findings from publication PMC7229167, “Atypical chemokine receptor ACKR2-V41A has decreased CCL2 binding, scavenging, and activation, supporting sustained inflammation and increased Alzheimer’s disease risk” (Scientific Reports, 2020) are described below.

Assay [1] has as its target T1, Atypical chemokine receptor 2 variant V41A (ACKR2-V41A; rs2228467) (human, UniProt O00590 1-384, V41A).
T1 construct: Atypical chemokine receptor 2 (ACKR2), human, natural variant V41A (rs2228467), expressed on the surface of CHO-k1 cells; also called ACRK2-V41A; source: CHO-k1 cells, transfected (lipofectamine), G418 selected, enriched with anti-PE MicroBeads; on cells
T1 sequence (looked up): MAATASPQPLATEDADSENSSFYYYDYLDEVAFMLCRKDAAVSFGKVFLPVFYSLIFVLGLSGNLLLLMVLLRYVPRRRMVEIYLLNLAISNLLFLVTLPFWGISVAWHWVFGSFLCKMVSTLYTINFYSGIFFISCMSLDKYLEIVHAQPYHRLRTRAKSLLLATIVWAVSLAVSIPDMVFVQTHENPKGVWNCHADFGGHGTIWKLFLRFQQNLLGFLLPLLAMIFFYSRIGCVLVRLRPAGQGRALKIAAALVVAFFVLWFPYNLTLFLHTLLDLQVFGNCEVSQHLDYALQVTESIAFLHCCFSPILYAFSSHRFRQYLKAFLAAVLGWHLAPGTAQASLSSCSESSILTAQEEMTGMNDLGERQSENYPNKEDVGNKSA
Description: flow cytometry on cells; competition: transfected CHO-k1 cells incubated with unconjugated chemokine at 37 °C for 45 minutes, then stained with anti-human ACKR2 polyclonal IgG and PE secondary; blockage = 100 minus percent of ACKR2-positive cells; titration with non-linear analysis for Kd. The note with it: one partner purified. In general terms: A flow cytometer gives signals particle by particle.

Assay [2] has as its target T2, Atypical chemokine receptor 2, wild type (ACKR2-WT) (human, UniProt O00590 1-384).
T2 construct: Atypical chemokine receptor 2 (ACKR2), human, wild type allele, expressed on the surface of CHO-k1 cells; also called CCBP-WT; source: CHO-k1 cells, transfected (lipofectamine), G418 selected, enriched with anti-PE MicroBeads; on cells
T2 sequence (looked up): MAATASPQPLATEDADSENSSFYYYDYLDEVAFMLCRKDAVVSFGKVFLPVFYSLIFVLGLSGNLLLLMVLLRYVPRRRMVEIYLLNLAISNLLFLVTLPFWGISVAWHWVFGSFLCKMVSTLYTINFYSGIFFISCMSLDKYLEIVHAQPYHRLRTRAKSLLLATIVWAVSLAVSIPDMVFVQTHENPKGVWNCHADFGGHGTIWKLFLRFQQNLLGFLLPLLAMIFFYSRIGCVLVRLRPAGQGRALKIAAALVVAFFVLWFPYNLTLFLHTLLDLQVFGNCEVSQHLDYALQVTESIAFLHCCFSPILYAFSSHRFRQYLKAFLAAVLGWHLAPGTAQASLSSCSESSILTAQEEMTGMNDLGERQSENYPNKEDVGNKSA
Described as above. The note with it: one partner purified.

B1: Chemokine ligand 4 (CCL4), unconjugated (ligand, UniProt P13236 24-92, looked up)
chain: APMGSDPPTACCFSYTARKLPRNFVVDYYETSSLCSQPAVVFQTKRSKQVCADPSESWVQEYVYDLELN
notes: Chemokine ligand 4 (CCL4), unconjugated; also called unconjugated CCL4; source: bought: PEPROTECH, Cat #300-.9
Turning to B1, the Kd (usually the equilibrium constant for the complex coming apart) was determined as 2030 nM in assay [1] and 600 nM in assay [2].
